For this experiment, the target named is brain-derived neurotrophic factor. The experiment is described as follows: native gel or EMSA. (In EMSA bound probe runs differently from free probe, usually more slowly.)

Consider one substance from paper PMC5958903.

The substance “soluble, recombinant extracellular domain of tropomyosin receptor kinase B (from UniProt Q16620 32-430)” showed a stoichiometry N (TrkB per BDNF dimer) of 1.
